Results on 17 molecules are retold here after patent publication US20250277196A1, “EPSPS MUTANTS AND METHOD OF ITS USES” (CROPEDIT BIOTECHNOLOGY INC., priority 2021, published 2025).

Substitutions are numbered along the chain they refer to. In names and notes the source's numbering stands.

In this assay the test system is Escherichia coli DH5α with EPSPS gene knocked out. Kind of assay: Resistance test of rice EPSPS mutants from error-prone PCR on OsGPV: colony growth on medium with 0, 100 mM and 125 mM glyphosate (FIG. 7). Type of assay: cell-based. The conditions noted are these: for colony growth status compared with OsGPV: 125 mM glyphosate pressure, FIG. 7. The source says: In order to further improve the glyphosate resistance and develop highly resistant rice EPSPS mutants that can meet commercial production requirements, we used OsGPV as a template to perform random mutations, with high-concentration glyphosate screening, and to identify EPSPS mutant that can improve the glyphosate resistance.
We used OsGPV(SEQ ID NO:6) as a template to perform error-prone PCR. (With GeneMorph II Random Mutagenesis Kit, #200550, Agilent Technologies).
a) The recovered product was digested with EcoRI and SbfI, and then ligated to the pKED2 vector after the same double digestion with T4 DNA ligase to obtain the ligation product to obtain the vector carrying the rice EPSPS gene mutant.
b) Transformed the above vector into Escherichia coli DH5α with EPSPS gene knocked out. The transformation steps were as follows: add the above ligation product to 50 μl E. coli DH5α competent cells with EPSPS gene knocked out, mix well and incubate on ice for 30 min, then after a heat shock at 42° C. for 90 s, immediately place it in an ice bath on ice for 2 min after taking it out. After the ice bath, add 500 μl of LB liquid medium and resuscitate at 37° C. at 180 r/min for 45 min. The transformed Escherichia coli was a mutant library expressing rice EPSPS mutant genes obtained on the template basis of OsGPV.
5) Centrifuged the transformed product obtained above at 3000 rpm for 5 min, discarded the supernatant, then resuspended it in 1 ml M9 liquid medium, added 200 μl M9 liquid medium to resuspend and inoculated it on an M9 plate containing 75 mM glyphosate. Incubated at 37 degrees for 24 hours.
Pick and saved the single colonies grown in the above screening plates, and conduct further resistance identification and sequencing
ii. Resistance test of rice mutants. In this example, the wild-type rice EPSPS gene OsWT, the most widely used commercial glyphosate-resistant gene CP4EPSPS, the rice mutantOsTIPS, which had the same mutation type with commercial glyphosate-resistant corn GA21, and the rice mutant OsGPV with the highly glyphosate-resistant rice EPSPS mutant gene obtained in this study were transformed as control, and the newly obtained rice EPSPS mutants were transformed as the experimental group, and the glyphosate resistance among the control and the mutants were compared. The monoclonal bacteria of the control group and the experimental group were respectively inoculated into a medium containing 0, 100 mM and 125 mM glyphosate, and the growth of colonies in each group was observed.

B1: 1-552: rice EPSPS with G172A, P177S, K399N, V403A and T466S mutations (protein)
chain: MAAKAEEIVLQPIREISGAVQLPGSKSLSNRILLLSALSEGTTVVDNLLNSEDVHYMLEALKALGLSVEADKVAKRAVVVGCGGKFPVEKDAKEEVQLFLGNAATAMRSLTAAVTAAGGNATYVLDGVPRMRERPIGDLVVGLKQLGADVDCFLGTECPPVRVKGIGGLPGGKVKLSGSISSQYLSALLMAAPLALGDVEIEIIDKLISIPYVEMTLRLMERFGVKAEHSDSWDRFYIKGGQKYKSPGNAYVEGDASSASYFLAGAAITGGTVTVQGCGTTSLQGDVKFAEVLEMMGAKVTWTDTSVTVTGPPREPYGKKHLKAVDVNMNNMPDAAMTLAVVALFADGPTAIRDVASWRVKETERMVAIRTELTKLGASVEEGPDYCIITPPEKLNITAIDTYDDHRMAMAFSLAACADVPVTIRDPGCTRKTFPNYFDVLSTFVRN
modifications: This sequence is synthesized in lab.
notes: rice EPSPS with G172A, P177S, K399N, V403A and T466S mutations
B1: the “colony growth status compared with OsGPV” value is “significantly higher than OsGPV”.

B2: 2-47: rice EPSPS with G172A, M175A, P177S, M258L, K356E, V403A and F512I mutations (protein)
chain: B1 chain with M107A, M190L, K288E, N331K, F444I
modifications: This sequence is synthesized in lab.
notes: rice EPSPS with G172A, M175A, P177S, M258L, K356E, V403A and F512I mutations
For the molecule B2, the “colony growth status compared with OsGPV” value is reported as “significantly higher than OsGPV”.

B3: 2-5: rice EPSPS with E163K, G172A, P177S, A216V, L253M, H389R and V403A mutations (protein)
chain: B1 chain with E95K, A148V, L185M, H321R, N331K
modifications: This sequence is synthesized in lab.
notes: rice EPSPS with E163K, G172A, P177S, A216V, L253M, H389R and V403A mutations
For the molecule B3, the “colony growth status compared with OsGPV” value is reported as “significantly higher than OsGPV”.

B4: 1-139: rice EPSPS with A73T, E86G, G172A, P177S and V403A mutations (protein)
chain: B1 chain with A5T, E89G, N331K
modifications: This sequence is synthesized in lab.
notes: rice EPSPS with A73T, E86G, G172A, P177S and V403A mutations
As to B4, the “colony growth status compared with OsGPV” value is “significantly higher than OsGPV”.

B5: 2-46: rice EPSPS with G172A, P177S, N246D and V403A mutations (protein)
chain: B1 chain with N249D, N331K
modifications: This sequence is synthesized in lab.
notes: rice EPSPS with G172A, P177S, N246D and V403A mutations
Take B5: the “colony growth status compared with OsGPV” value is recorded as “significantly higher than OsGPV”.

B6: 1-599: rice EPSPS with A73G, L134F, G172A, P177S, G265V, S374R and V403A mutations (protein)
chain: B1 chain with A5G, L66F, G197V, S306R, N331K
modifications: This sequence is synthesized in lab.
notes: rice EPSPS with A73G, L134F, G172A, P177S, G265V, S374R and V403A mutations
Take B6: the “colony growth status compared with OsGPV” value is given as “significantly higher than OsGPV”.

B7: 1-98: rice EPSPS with A73T, G172A, P177S and V403A mutations (protein)
chain: B1 chain with A5T, N331K
modifications: This sequence is synthesized in lab.
notes: rice EPSPS with A73T, G172A, P177S and V403A mutations
As for B7, the “colony growth status compared with OsGPV” value was “significantly higher than OsGPV”.

B8: 1-246: rice EPSPS with A145G, G172A, P177S, V403A, T442S and D472E mutations (protein)
chain: B1 chain with A77G, N331K, T374S, D404E
modifications: This sequence is synthesized in lab.
notes: rice EPSPS with A145G, G172A, P177S, V403A, T442S and D472E mutations
With B8, the “colony growth status compared with OsGPV” value is given as “significantly higher than OsGPV”.

B9: 1-68: rice EPSPS with A70V, G172A, P177S, V403A and R514S mutations (protein)
chain: B1 chain with A2V, N331K, R446S
modifications: This sequence is synthesized in lab.
notes: rice EPSPS with A70V, G172A, P177S, V403A and R514S mutations
For B9, the “colony growth status compared with OsGPV” value is given as “significantly higher than OsGPV”.

B10: 1-411: rice EPSPS with G172A, P177S, Y252F and V403A mutations (protein)
chain: B1 chain with Y184F, N331K
modifications: This sequence is synthesized in lab.
notes: rice EPSPS with G172A, P177S, Y252F and V403A mutations
On to B10, for which the “colony growth status compared with OsGPV” value is on record as “significantly higher than OsGPV”.

B11: 1-547: rice EPSPS with E137D, G172A, P177S, L253M and V403A mutations (protein)
chain: B1 chain with E69D, L185M, N331K
modifications: This sequence is synthesized in lab.
notes: rice EPSPS with E137D, G172A, P177S, L253M and V403A mutations
On to B11, for which the “colony growth status compared with OsGPV” value was “significantly higher than OsGPV”.

B12: 1-386: rice EPSPS with G172A, P177S, V403A and F502V mutations (protein)
chain: B1 chain with N331K, F434V
modifications: This sequence is synthesized in lab.
notes: rice EPSPS with G172A, P177S, V403A and F502V mutations
B12: the “colony growth status compared with OsGPV” value is “significantly higher than OsGPV”.

B13: SEQ ID NO:19: rice EPSPS with A73K, D114H, V136M, K161E, G172A, P177S, A260T and V403A mutations; sample code not printed (protein)
chain: B1 chain with A5K, D46H, V68M, K93E, A192T, N331K
modifications: This sequence is synthesized in lab.
For B13, the “colony growth status compared with OsGPV” value was “significantly higher than OsGPV”.

B14: 3-33: rice EPSPS with G172A, P177S, V208A, L264H, V403A and R514K mutations (protein)
chain: B1 chain with V140A, L196H, N331K, R446K
modifications: This sequence is synthesized in lab.
notes: rice EPSPS with G172A, P177S, V208A, L264H, V403A and R514K mutations
Take B14: the “colony growth status compared with OsGPV” value is “significantly higher than OsGPV”.

B15: 3-36: rice EPSPS with V113M, G172A, P177S and V403A mutations (protein)
chain: B1 chain with V45M, N331K
modifications: This sequence is synthesized in lab.
notes: rice EPSPS with V113M, G172A, P177S and V403A mutations
Take B15: the “colony growth status compared with OsGPV” value was “significantly higher than OsGPV”.

B16: SEQ ID NO:23: rice EPSPS with A73S, G172A, P177S, L214F and V403A mutations; sample code not printed (protein)
chain: B1 chain with A5S, L146F, N331K
modifications: This sequence is synthesized in lab.
On to B16, for which the “colony growth status compared with OsGPV” value is “significantly higher than OsGPV”.

B17: OsTIPS: mutated rice EPSPS with mutation T173I and P177S (SEQ ID NO:35); same mutation type as glyphosate-resistant corn GA21 (protein)
chain: B1 chain with A104G, T105I, N331K, A335V
modifications: This sequence is synthesized in lab.
notes: same mutation type as glyphosate-resistant corn GA21
As to B17, the “colony growth under 100 mM glyphosate” value (100 mM glyphosate) was “did not grow”.
